Assay results from the supplement of paper PMC7877785.
± gives the uncertainty stated by the source.

Experiment: self-splicing fitness, log relative to wild type (ln ratio); higher = more splicing; Tetrahymena group I intron in knt gene, E. coli kanamycin selection, DiMSum; sequences stand for … in CUCUCU…GGAGGGAAAAGUUAUCAGGCAUGCACCUGGUAGCUAGUCUUUAAACCAAUAGAUUGCAUCGGUUUAAAAGGCAAGACCGUCAAAUUGCGGGAAAGGGGUCAACAGCCGUUCAGUACCAAGUCUCAGGGGAAACUUUGAGAUGGCCUUGCAAAGGGUAUGGUAAUAAGCUGACGGACAUGGUCCUAACCACGCAGCCAAGUCCUAAGUCAACAGAUCUUCUGUUGAUAUGGAUGCAGUUCACAGACUAAAUGUCGGUCGGGGAAGAUGUAUUCUUCUCAUAAGAUAUAGUCGGACCUCUCCUUAAUGGGAGCUAGCGGAUGAAGUGAUGCAACACUGGAGCCGCUGGGAACUAAUUUGUAUGCGAAAGUAUAUUGAUUAGUUUUGGAGUACUCGUGGUCG
Procedure, shortened: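 Fitness was computed with DiMSum as the error-weighted combination of replicate fold changes, kanamycin versus none, each normalised to wild type. The library randomised all eight intron nucleotides of the P1ex region, with the intron placed in the knt kanamycin-resistance gene on pET-22b(+) in E. coli BL21(DE3). Six replicate transformations were grown overnight at 37°C or 30°C on LB agar with or without 25 μg/mL kanamycin, plus 100 μg/mL carbenicillin, 50 μM IPTG and 0.2% rhamnose. Pooled colonies were amplicon-sequenced on an Illumina HiSeq 2500.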

Row | Sequence | self-splicing fitness (ln) (30 °C) | self-splicing fitness (ln) (37 °C)
1 | GUACAGCAAUAUUACGUGGG | -3.76 ± 0.13 | -3.18 ± 0.14
2 | GUACAGCAAUAUUACGUGGU | -3.43 ± 0.16 | -2.49 ± 0.17
3 | GUACAGCAAUAUUACGUUAG | -2.37 ± 0.15 | -1.74 ± 0.17
4 | GUACAGCAAUAUUACGUUUU | -3.88 ± 0.17 | -2.72 ± 0.14
5 | GUAGAGCAAUAUUACGAACG | -2.44 ± 0.22 | -1.38 ± 0.2
6 | GUAGAGCAAUAUUACGAAUC | -1.28 ± 0.2 | -0.812 ± 0.29
7 | GUAGAGCAAUAUUACGACAC | -0.732 ± 0.15 | 0.357 ± 0.2
8 | GUAGAGCAAUAUUACGCAAU | -2.52 ± 0.11 | -0.0736 ± 0.11
9 | GUAGAGCAAUAUUACGCAGG | -1.51 ± 0.15 | -1.59 ± 0.15
10 | GUAGAGCAAUAUUACGCGGA | -1.47 ± 0.14 | -0.734 ± 0.12
11 | GUAGAGCAAUAUUACGCUGG | -1.56 ± 0.17 | -1.53 ± 0.24
12 | GUAGAGCAAUAUUACGCUUC | -3.16 ± 0.45 | -1.63 ± 0.27
13 | GUAGAGCAAUAUUACGGAAG | -2.83 ± 0.29 | -1.42 ± 0.4
14 | GUAGAGCAAUAUUACGGCAU | -0.0916 ± 0.085 | 0.127 ± 0.12
15 | GUAGAGCAAUAUUACGGCCU | -0.447 ± 0.11 | -0.0153 ± 0.14
16 | GUAGAGCAAUAUUACGGCUC | -1.57 ± 0.26 | -0.26 ± 0.45
17 | GUAGAGCAAUAUUACGGGGC |  | -1.52 ± 0.36
18 | GUAGAGCAAUAUUACGGGUA | -4.17 ± 0.35 | -1.75 ± 0.19
19 | GUAGAGCAAUAUUACGGUAA | -1.74 ± 0.15 | -1.3 ± 0.19
20 | GUAGAGCAAUAUUACGGUUA | -1.35 ± 0.11 | -0.0418 ± 0.13
21 | GUAGAGCAAUAUUACGUAGU |  | -0.866 ± 0.15
22 | GUAGAGCAAUAUUACGUAUA | -1.7 ± 0.28 | -0.319 ± 0.25
23 | GUAGAGCAAUAUUACGUCGG | -1.87 ± 0.15 | -1.61 ± 0.22
24 | GUAGAGCAAUAUUACGUGCA | -0.339 ± 0.11 | 0.541 ± 0.18
25 | GUAGAGCAAUAUUACGUUGC | -4.29 ± 0.3 | -3.11 ± 0.24
26 | GUAGAGCAAUAUUACGUUUC | -1.87 ± 0.15 | -0.679 ± 0.17

Row | Sequence | self-splicing fitness (ln) (30 °C) | self-splicing fitness (ln) (37 °C)
27 | GUAGAGCAAUAUUACGUUUG | -2.91 ± 0.24 | -2.23 ± 0.29
28 | GUAUAGCAAUAUUACGACUG | -2.88 ± 0.33 | -2.23 ± 0.33
29 | GUAUAGCAAUAUUACGAGAG | -1.56 ± 0.22 | -2.9 ± 0.34
30 | GUAUAGCAAUAUUACGAGUU | -3.29 ± 0.19 | -1.17 ± 0.14
31 | GUAUAGCAAUAUUACGCCCG | -1.63 ± 0.17 | -1.37 ± 0.23
32 | GUAUAGCAAUAUUACGGCAA | -0.453 ± 0.39 | -0.521 ± 0.35
33 | GUAUAGCAAUAUUACGGCAU | -0.587 ± 0.081 | -0.661 ± 0.1
34 | GUAUAGCAAUAUUACGGGCC |  | -1.55 ± 0.27
35 | GUAUAGCAAUAUUACGGGGU | -4.08 ± 0.27 | -1.4 ± 0.14
36 | GUAUAGCAAUAUUACGGUCC | -0.391 ± 0.28 | -1.19 ± 0.46
37 | GUAUAGCAAUAUUACGUAAU | -2.43 ± 0.14 | -0.699 ± 0.14
38 | GUAUAGCAAUAUUACGUCAU | -2.03 ± 0.17 | -0.747 ± 0.17
39 | GUAUAGCAAUAUUACGUGAG | -1.85 ± 0.13 | -1.42 ± 0.17
40 | GUAUAGCAAUAUUACGUGAU | -2.29 ± 0.15 | -1.71 ± 0.17
41 | GUCAAGCAAUAUUACGAGAG | -2.41 ± 0.18 | -2.31 ± 0.27
42 | GUCAAGCAAUAUUACGAUAG | -4.6 ± 0.42 | -3.02 ± 0.47
43 | GUCAAGCAAUAUUACGCCAU | -4.64 ± 0.42 | -3.01 ± 0.18
44 | GUCAAGCAAUAUUACGCCCG | -2.15 ± 0.21 | -1.11 ± 0.2
45 | GUCAAGCAAUAUUACGCGGA | -2.98 ± 0.17 | -2.02 ± 0.16
46 | GUCAAGCAAUAUUACGCGUA | -1.32 ± 0.08 | -0.362 ± 0.077
47 | GUCAAGCAAUAUUACGCUAA | -1.48 ± 0.15 | -1.45 ± 0.14
48 | GUCAAGCAAUAUUACGCUAG | -2.83 ± 0.15 | -2 ± 0.14
49 | GUCAAGCAAUAUUACGUAAA | -0.78 ± 0.058 | -0.463 ± 0.07
50 | GUCAAGCAAUAUUACGUAAC | -1.33 ± 0.17 | -0.545 ± 0.14
51 | GUCAAGCAAUAUUACGUCGU | -1.68 ± 0.066 | -0.826 ± 0.078
52 | GUCAAGCAAUAUUACGUGGU | -4.8 ± 0.3 | -3.09 ± 0.16

Row | Sequence | self-splicing fitness (ln) (30 °C) | self-splicing fitness (ln) (37 °C)
53 | GUCAAGCAAUAUUACGUGUC | -2.72 ± 0.13 | -1.46 ± 0.12
54 | GUCCAGCAAUAUUACGAAAC | -0.222 ± 0.15 | -0.568 ± 0.2
55 | GUCCAGCAAUAUUACGAACC | -1.97 ± 0.093 | -0.224 ± 0.11
56 | GUCCAGCAAUAUUACGAAUA | 0.0949 ± 0.13 | -0.595 ± 0.15
57 | GUCCAGCAAUAUUACGACAU | -0.524 ± 0.012 | 0.0313 ± 0.032
58 | GUCCAGCAAUAUUACGAGCG | -2.31 ± 0.14 | -0.864 ± 0.15
59 | GUCCAGCAAUAUUACGAUCC | -0.959 ± 0.087 | -0.16 ± 0.11
60 | GUCCAGCAAUAUUACGAUGA | -1.49 ± 0.084 | -0.996 ± 0.092
61 | GUCCAGCAAUAUUACGAUGU | -0.9 ± 0.07 | -0.235 ± 0.083
62 | GUCCAGCAAUAUUACGCAAA | -1.46 ± 0.12 | -0.457 ± 0.11
63 | GUCCAGCAAUAUUACGCAAU | -0.658 ± 0.071 | 0.419 ± 0.087
64 | GUCCAGCAAUAUUACGCAGA | -3.39 ± 0.4 | -1.87 ± 0.22
65 | GUCCAGCAAUAUUACGCCCU | -0.888 ± 0.13 | -0.617 ± 0.18
66 | GUCCAGCAAUAUUACGCCUA | -0.215 ± 0.095 | -0.244 ± 0.093
67 | GUCCAGCAAUAUUACGCGUG | -1.04 ± 0.063 | -0.469 ± 0.068
68 | GUCCAGCAAUAUUACGCUAU | -0.823 ± 0.055 | -0.104 ± 0.071
69 | GUCCAGCAAUAUUACGCUGU | -0.609 ± 0.073 | -0.386 ± 0.076
70 | GUCCAGCAAUAUUACGGAUA | -0.361 ± 0.056 | 0.0186 ± 0.063
71 | GUCCAGCAAUAUUACGGCAC | -1.17 ± 0.064 | -0.348 ± 0.092
72 | GUCCAGCAAUAUUACGGCAG |  | -2.06 ± 0.2
73 | GUCCAGCAAUAUUACGGGAC | -3.53 ± 0.2 | -2.94 ± 0.31
74 | GUCCAGCAAUAUUACGGGCG | -2.53 ± 0.12 | -0.72 ± 0.099
75 | GUCCAGCAAUAUUACGGGGA | -2.41 ± 0.13 | -1.37 ± 0.12
76 | GUCCAGCAAUAUUACGGGUG | -0.386 ± 0.052 | 0.0761 ± 0.067
